For assay [1], the target named is PAM4 antigen (human pancreatic cancer mucin, CaPan1) (human). Description: ELISA on target mucin antigen (FIG. 9). In general terms: In an ELISA, binding on a coated surface is turned into a signal by an enzyme label.
For assay [2] the target is unchanged. Description: radiolabelled TF10 mixed with mucin, size-exclusion analysis. Background: Size exclusion chromatography separates by hydrodynamic size, large species first.
Assay [3] has the same target. Description: size-exclusion elution of the 111In-IMP-288/TF10 complex with excess mucin.
Assay [4] deals with IMP-288 di-HSG hapten-peptide, DOTA-D-Tyr-D-Lys(HSG)-D-Glu-D-Lys(HSG)-NH2. The assay is described as follows: size-exclusion elution of 111In-IMP-288 with TF10.

For the substance PAM4-F(ab')2 (antibody), in assay [1], the EC50 (as a rule, the midpoint of the concentration-response curve) came out at 1.83 nM.
“TF10 bispecific ([hPAM4]2 x h679) trimeric DNL construct (bispecific antibody)”: the EC50 in assay [1] came to 1.42 nM. In assay [2], this substance came in with an immunoreactive fraction bound of 87%. In addition, the percent of TF10-bound peptide eluting at higher molecular weight with excess mucin in assay [3] is 92%. Also, the percent bound in assay [4] stood at 90%.

The values above are taken from patent US20090304580A1.
